From patent publication US20200325209A1 (CSL, published 2020)

Experiments:
[1] = target: T1, HSA WT, soluble (human, UniProt P02768 25-609); experiment: SPR, FcRn over immobilised HSA, pH 6.0
T1 construct: also called wild-type HSA; recombinant wild-type HSA

[2] = target: HSA [G572R], soluble (human, UniProt P02768 25-609); experiment: SPR, FcRn over immobilised HSA, pH 6.0
[3] = target: HSA [Q522L/A552V], soluble (human, UniProt P02768 25-609); experiment: SPR, FcRn over immobilised HSA, pH 6.0
[4] = target: T2, HSA [K573Y], soluble (human, UniProt P02768 25-609); experiment: SPR, FcRn over immobilised HSA, pH 6.0, 1:1 model; pH 6.0
Description: (§1) Spot 3 of each flow cell was activated/deactivated and used for reference subtraction. The flow rate of FcRn/β2m was kept constant at 30 μL/min
(§2) A concentration range of 2 to 0.007 μM (pH6.0) and 20 to 0.078 μM (pH7.3) was used and association and dissociation phases were monitored for 180 and 600 seconds respectively.
(§3) Regeneration of the surface was performed as previously described.

[5] = target: T3, HSA [A552V/G572R], soluble (human, UniProt P02768 25-609); experiment: as above
T3 construct: also called A522V/G572R
Description: as §1, §2, §3

[6] = target: T4, HSA [Q522L/G572R], soluble (human, UniProt P02768 25-609); experiment: as above
Description: as §1, §2, §3

[7] = target: T5, human neonatal Fc receptor FcRn/β2m, soluble recombinant (human, UniProt P55899 24-297; P61769 21-119, alexa-488 label (Examples 2-4); minimal chemical biotinylation with Sulfo-NHS-LC-LC-Biotin (Examples 5-6)); experiment: flow cytometry, labelled FcRn on CHO-displayed HSA, pH 5.4
T5 construct: Heterodimer; extracellular domain is inferred; also called hFcRn/β2M; hsFcRn
T5 sequence (P55899 24-297 limits assumed, chain 1 of 2): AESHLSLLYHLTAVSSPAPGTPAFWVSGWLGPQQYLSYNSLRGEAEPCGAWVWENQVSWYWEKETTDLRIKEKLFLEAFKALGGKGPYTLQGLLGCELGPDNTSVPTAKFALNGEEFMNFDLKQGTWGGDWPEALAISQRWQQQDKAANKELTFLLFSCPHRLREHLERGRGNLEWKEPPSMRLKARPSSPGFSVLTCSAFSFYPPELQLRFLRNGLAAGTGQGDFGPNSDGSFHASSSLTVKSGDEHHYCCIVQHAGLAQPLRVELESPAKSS
T5 sequence (P61769 21-119 limits assumed, chain 2 of 2): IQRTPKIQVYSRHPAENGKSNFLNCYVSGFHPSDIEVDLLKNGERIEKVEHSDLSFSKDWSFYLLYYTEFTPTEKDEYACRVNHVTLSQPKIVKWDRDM
Excerpt: (§4) Background fluorescence due to non-specific binding of the labelled FcRn to the cells was subtracted from the value obtained.

[8] = target: T5, human neonatal Fc receptor FcRn/β2m, …; experiment: flow cytometry, labelled FcRn on CHO-displayed HSA, pH 7.3
Excerpt: as §4

[9] = target: T2, HSA [K573Y], soluble; experiment: SPR, FcRn over immobilised HSA, pH 6.0
[10] = target: T3, HSA [A552V/G572R], soluble; experiment: SPR, FcRn over immobilised HSA, pH 6.0
[11] = target: T4, HSA [Q522L/G572R], soluble; experiment: SPR, FcRn over immobilised HSA, pH 6.0

Binder	binding result [1]	binding result [2]	binding result [3]	Kd [4]	Kd [5]	Kd [6]	fold change to WT [7]	geoMFI [7]	fold change to WT [8]	geoMFI [8]	binding result [9]	binding result [10]	binding result [11]
rat FcRn/β2m, soluble recombinant (receptor, Extracellular domain inferred from 'soluble') AEPRLPLMYHLAAVSDLSTGLPSFWATGWLGAQQYLTYNNLRQEADPCGAWIWENQVSWYWEKETTDLKSKEQLFLEAIRTLENQINGTFTLQGLLGCELAPDNSSLPTAVFALNGEEFMRFNPRTGNWSGEWPETDIVGNLWMKQPEAARKESEFLLTSCPERLLGHLERGRQNLEWKEPPSMRLKARPGNSGSSVLTCAAFSFYPPELKFRFLRNGLASGSGNCSTGPNGDGSFHAWSLLEVKRGDEHHYQCQVEHEGLAQPLTVDLDSPARSS b2m: IQKTPQIQVYSRHPPENGKPNFLNCYVSQFHPPQIEIELLKNGKKIPNIEMSDLSFSKDWSFYILAHTEFTPTETDVYACRVKHVTLKEPKTVTWDRDM	no binding (tested: 2 µM)	no binding (tested: 2 µM)	no binding (tested: 2 µM)	0.989 µM	4.82 µM	4.75 µM	–	–	–	–	–	–	–
HSA [K317E/M329V/K372E/F377I/I388T/A552V/G572R] (clone 3.9), membrane-tethered on CHO cells (other, not shown: Myc tag and PDGFR transmembrane domain) DAHKSEVAHRFKDLGEENFKALVLIAFAQYLQQCPFEDHVKLVNEVTEFAKTCVADESAENCDKSLHTLFGDKLCTVATLRETYGEMADCCAKQEPERNECFLQHKDDNPNLPRLVRPEVDVMCTAFHDNEETFLKKYLYEIARRHPYFYAPELLFFAKRYKAAFTECCQAADKAACLLPKLDELRDEGKASSAKQRLKCASLQKFGERAFKAWAVARLSQRFPKAEFAEVSKLVTDLTKVHTECCHGDLLECADDRADLAKYICENQDSISSKLKECCEKPLLEKSHCIAEVENDEMPADLPSLAADFVESKDVCENYAEAKDVFLGVFLYEYARRHPDYSVVLLLRLAKTYETTLEKCCAAADPHECYAEVFDEIKPLVEEPQNLTKQNCELFEQLGEYKFQNALLVRYTKKVPQVSTPTLVEVSRNLGKVGSKCCKHPEAKRMPCAEDYLSVVLNQLCVLHEKTPVSDRVTKCCTESLVNRRPCFSALEVDETYVPKEFNAETFTFHADICTLSEKERQIKKQTALVELVKHKPKATKEQLKAVMDDFVAFVEKCCKADDKETCFAEERKKLVAASQAALGL	–	–	–	–	–	–	20.8 fold	34800	1.8 fold	28.8	–	–	–
mouse FcRn/β2m, soluble recombinant (receptor, Extracellular domain inferred from 'soluble'; also called murineFcRn; murine FcRn/β2m) SETRPPLMYHLTAVSNPSTGLPSFWATGWLGPQQYLTYNSLRQEADPCGAWMWENQVSWYWEKETTDLKSKEQLFLEALKTLEKILNGTYTLQGLLGCELASDNSSVPTAVFALNGEEFMKFNPRIGNWTGEWPETEIVANLWMKQPDAARKESEFLLNSCPERLLGHLERGRRNLEWKEPPSMRLKARPGNSGSSVLTCAAFSFYPPELKFRFLRNGLASGSGNCSTGPNGDGSFHAWSLLEVKRGDEHHYQCQVEHEGLAQPLTVDLDSSARSS b2m: IQKTPQIQVYSRHPPENGKPNILNCYVTQFHPPHIEIQMLKNGKKIPKVEMSDMSFSKDWSFYILAHTEFTPTETDTYACRVKHASMAEPKTVYWDRDM	–	no binding (tested: 2 µM)	no binding (tested: 2 µM)	–	–	–	–	–	–	–	no binding (tested: 2 µM)	no binding (tested: 2 µM)	no binding (tested: 2 µM)
